Results on seven molecules are retold here after patent publication US8143366B2, “Aryl carbamate oligomers for hydrolyzable prodrugs and prodrugs comprising same” (priority 2003, dated 2012).

The nature of series [1]: Ex vivo hydrolysis in rat plasma at 37° C. The class given is in vitro ADME. Conditions: Table 2 conjugates, average of three experiments ± s. d. How it is done: Experiments using rat plasma were conducted in similar fashion to the esterase hydrolysis experiments. A stock, or reference, solution of each conjugate was made that was ˜15 mg/mL in DMSO. Two hundred microliters of stock were added to 800 μL 50 mM PBS buffer. Fifty microliters of this latter solution were added to 950 μL rat plasma and placed at 37° C. in a reciprocal waterbath shaker. At the appropriate time intervals, a 50 μl, aliquot was taken, added to 100 μl, ACN, and vigorously vortexed for 1 minute. The sample was centrifuged at 10,000 rpm for 5 minutes and 50 μL, of supernatant was then injected for HPLC analysis. A calibration curve for measuring the concentration of each conjugate was made.

The target in series [2] is T1, rabbit liver carboxylesterase (Oryctolagus cuniculus, UniProt P12337). Nature of the series: in vitro. Conditions: purified rabbit liver carboxylesterase in PBS buffer, pH 7.4.
Method: (§1) Stock, or reference, solutions of hydrolyzable conjugates were first prepared at ˜2 mg/mL in DMSO. Working solutions of the hydrolyzable conjugates were then prepared in triplicate (working solutions A). Fifty microliters of stock conjugate were added to 5.0 mL 50 mM PBS buffer.
(§2) A stock solution of carboxylesterase was prepared by adding ˜2 mg esterase to 2.0 mL 50 mM PBS buffer. A working solution of carboxylesterase was prepared by diluting 50 uL of the stock solution with 5.0 mL 50 mM PBS buffer (working solution B).
(§3) Five hundred microliters of working solution B were then added to each working solution A (0.5 units enzyme and between 10-20 μM conjugate). The reaction mixtures were immediately vortexed and sampled for a time=0 analysis. The reaction solutions were incubated at 37° C. in a reciprocal waterbath shaker. At appropriate time intervals during incubation, 75 μL aliquots were taken and injected directly on HPLC for hydrolysis rate data. With each experiment, a new calibration curve for the particular conjugate was made.
(§4) The pseudo first-order rate constant, or “k”, is obtained from the slope of the natural log of the concentration of the conjugate versus time curve. The half-life is then calculated from k.
For series [3], the target named is T1, rabbit liver carboxylesterase. Conditions: pH 7.4.
Method: as §1, §2, §3, §4

Like-named read-outs stand apart in the source and are kept apart here.

T1 sequence (P12337 19-565): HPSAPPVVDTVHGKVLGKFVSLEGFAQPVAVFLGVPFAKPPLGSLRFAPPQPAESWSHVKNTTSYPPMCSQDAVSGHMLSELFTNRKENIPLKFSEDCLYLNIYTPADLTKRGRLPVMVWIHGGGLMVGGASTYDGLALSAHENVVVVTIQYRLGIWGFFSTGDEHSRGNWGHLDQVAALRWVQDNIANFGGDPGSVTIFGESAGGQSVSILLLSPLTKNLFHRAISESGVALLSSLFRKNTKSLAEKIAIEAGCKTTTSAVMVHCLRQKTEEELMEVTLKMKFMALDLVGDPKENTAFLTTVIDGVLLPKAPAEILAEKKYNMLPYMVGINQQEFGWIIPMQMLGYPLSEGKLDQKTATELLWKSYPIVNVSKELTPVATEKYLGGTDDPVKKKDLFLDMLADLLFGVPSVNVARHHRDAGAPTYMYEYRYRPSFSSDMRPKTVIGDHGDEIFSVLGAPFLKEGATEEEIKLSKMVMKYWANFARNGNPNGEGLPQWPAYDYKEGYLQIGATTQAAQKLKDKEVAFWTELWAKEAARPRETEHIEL

As a reminder, the half-life is the time in which the quantity being followed falls by half. A lower half-life goes with fast loss. With `COCCOCCOCCOCCNC(=O)c1cc(OC(=O)N[C@@H](Cc2ccc(O)cc2)C(=O)NCC(=O)NCC(=O)N[C@@H](Cc2ccccc2)C(=O)N[C@@H](CC(C)C)C(=O)O)cc(C(=O)NCCOCCOCCOCCOC)c1`, the t1/2 entry in series [1] is “~Immediate Hydrolysis”. Further, in series [2], the half-life is 0.03 ± 0.12 h.

`COCCOCCOCCOCCOC(=O)NC(Cc1ccc(OC(=O)N[C@@H](Cc2ccc(O)cc2)C(=O)NCC(=O)NCC(=O)N[C@@H](Cc2ccccc2)C(=O)N[C@@H](CC(C)C)C(=O)O)cc1)C(=O)OC` (some centres unmarked) registered a half-life at […] in series [1] of 0.251 ± 0.0772 h. Moreover, in series [2], the half-life is 1.3 ± 0.04 h.

With `CCCCCCCCCCCCOCCOCCOCCOCCOCCOCCOCCOCCOc1ccc(OC(=O)N[C@@H](Cc2ccc(O)cc2)C(=O)NCC(=O)NCC(=O)N[C@@H](Cc2ccccc2)C(=O)N[C@@H](CC(C)C)C(=O)O)cc1`, the half-life at […] in series [1] stood at 2.33 ± 0.0723 h. This molecule also had a half-life in series [2] of 10.4 ± 0.9 h.

As for `COCCOCCOCCOCCOc1ccc(OC(=O)N[C@@H](Cc2ccc(O)cc2)C(=O)NCC(=O)NCC(=O)N[C@@H](Cc2ccccc2)C(=O)N[C@@H](CC(C)C)C(=O)O)cc1OCCOC`, the half-life in series [1] is 0.354 ± 0.0667 h; in series [3], 2.7 ± 0.2 h.

Consider `COCCOCCOCCOCCNC(=O)c1ccc(OC(=O)N[C@@H](Cc2ccc(O)cc2)C(=O)NCC(=O)NCC(=O)N[C@@H](Cc2ccccc2)C(=O)N[C@@H](CC(C)C)C(=O)O)cc1`, for which the t1/2 result in series [1] is given as “~Immediate Hydrolysis”. The same molecule gave a half-life in series [2] of 0.04 ± 0.17 h.

In series [1], `COCCOCCOCCOCCOc1ccc(OC(=O)N[C@@H](Cc2ccc(O)cc2)C(=O)NCC(=O)NCC(=O)N[C@@H](Cc2ccccc2)C(=O)N[C@@H](CC(C)C)C(=O)O)cc1` displayed a half-life at […] of 0.912 ± 0.0723 h. This molecule also had a half-life in series [2] of 6.9 ± 0.1 h.

As for `COCCOCCOCCOCCOCc1ccc(OC(=O)N[C@@H](Cc2ccc(O)cc2)C(=O)NCC(=O)NCC(=O)N[C@@H](Cc2ccccc2)C(=O)N[C@@H](CC(C)C)C(=O)O)cc1`, the half-life at […] in series [1] was found to be 0.027 ± 0.00733 h. The molecule also gave a half-life in series [2] of 1.4 ± 0.1 h.
